The experiment deals with RapR-LIMK1-Flag (LIMK1 T508D with iFKBP inserted in place of E360, flanked by GPG linkers) (UniProt P53667). In words: co-IP.

For one substance, normalized binding to TrkB (500 nM rapamycin) results are on record in article PMC10651130.

As for “TrkB-EGFP (tropomyosin receptor kinase B, EGFP-tagged) (from UniProt Q16620 32-822)”, the normalized binding to TrkB (500 nM rapamycin) came out at 98.6%.
